# Measurements published in US8357523B2, “Beta-glucosidase variant enzymes and related polynucleotides” (Codexis, Inc., priority 2009, dated 2013).
# Assays:
# [1] = High throughput cellobiose assay: fold improvement in cellobiase activity of CelA variants over a control enzyme (Tables 2A-2D, 3, 5, 6, 7); assay type: biochemical; details: assay of Example 7
# [2] = Saccharification of microcrystalline cellulose by Trichoderma reesei whole cellulase supplemented with β-glucosidase; assay type: biochemical; details: 1 g/L TRWC alone or 25% of TRWC substituted with the β-glucosidase; 200 g/L Avicel, 100 g/L xylose, pH5.5, 55° C., 48 hours
# Text: FIG. 12 illustrates the impact of supplementing a commercially available Trichoderma reesei whole cellulose (“TRWC”) mixture with a CelA variant of the present invention. Compositions containing TRWC were supplemented with β-glucosdiases CelA Variant No. 264 (“Cel var1”), CelA Variant No. 366 (“Cel var2”), and a commercially available Aspergillus niger β-glucosidase (“ANBG”) in a ratio of 3:1 TRWC to β-glucosidase. The effectiveness of each composition at hydrolyzing microcrystalline cellulose was evaluated as described in Example 15. A plot of glucose and cellobiose concentration (g/L) vs. cellulase composition is depicted. The control composition was TRWC with no added β-glucosidase.
# The impact of adding a CelA variant of the present invention to commercially available cellulose mixtures and microcrystalline cellulose, Avicel™, was evaluated. In the test reactions, 1 g/L Trichoderma reesei whole cellulose (“TRWC”, Sigma catalog #C85456-10KU (ATCC 26921)) was used to convert 200 g/L of the microcrystalline cellulose Avicel™ (200 mM Sodium acetate; 100 g/L xylose, pH5.5 and 55° C.). The amount of glucose was measured after 48 hours of reaction. As a comparison, 25% of the TRWC was replaced with a β-glucosidase: Variant No. 264 (“Cel var1”), Variant No. 366 (“Cel var2”), or with the commercially available cellobiase, Aspergillus niger beta-glucosidase (“ANBG”, Sigma catalog #49291-1G). […]
molecule,measurement,setting,value
Variant No. 264 (protein) SAAIAQEGAAPAAMLHPEKWPRPATQRLIDPAVEKRVDALLKQLSVEEKVGQVIQGDIGTITPEDLRKYPLGSILAGGDSGPNGDDRAPPKEWLDLADAFYRVSLEKRPGHTPIPVLFGIDAVHGHGNIGSATIFPHNIALGMTRDPELLRRIGEVTAEEMAATGIDWTFAPALSVVRDDRWGRTYEGFSEDPEIVASYSAAIVEGVQGKYGSKDFMAPGRAVACAKHFLADGGTDQGRDQGDARISEDELIRIHNAGYPPAIDAGVLTVMASFSSWQGIKHHGHKQLLTDVLKGQMGFNGFIVGDWNAHDQVPGCTKFNCPTSLIAGLDMYMAADSWKQLYENTLAQVKDGTIPMARLDDAVRRILRVKVLAGLFEKPAPKDRPGLPGLETLGSPEHRAVGREAVRKSLVLLKNDKGTLPLSPKARVLVAGDGADNIGKQSGGWTISWQGTGNRNDEFPGATSILGGIRDAVADAGGSVEFDVAGQYKTKPDVAIVVFGEEPYAEFRGDVETLEYQPDQKQDLTLLKKLKDQGIPVVAVFLSGRPMWVNPELNASDAFVAAWLPGTEGGGVADVLFTDKAGKVQHDFAGKLSYSWPRTAAQTTVNRGDADYNPLFAYGYGLTYKDKSKVGTLPEESGVPAEARQN,"activity (e.g., thermoactivity) over the wildtype A. irakense β-glucosidase",[1],improved activity
same,cellobiose and glucose combined yielded in saccharification reaction,[2],comparable results
